Results from PMC9596371 (Nature Chemical Biology, 2022).
Where a chain is given by its changes, count along the chain named.

B1: COVA2-14 IgG (antibody, V domains shown)
VH: QVQLVQSGAEVKKPGSSVKVSCKASGGTFSSYAIIWVRQAPGQGLEWMGGIIPIFGTANYAQKFQGRVTITTDESTSTAYMELSSLRSEDTAVYYCARVRYYDSSGYYEDYWGQGTLVTVSS
VL: EIVLTQSPATLSLSPGERATLSCRASQSVSSYLAWYQQEPGQAPRLLIYDASNRATGIPARFSGSGSGTDFTLTISSLEPEDFAVYYCQQRSNWPPMYTFGQGTKVEIK
B2: COV2-2449 IgG (antibody, V domains shown)
VH: QVQLVESGGGVVQPGRSLRLSCATSGFTFSSFALHWVRQAPGKGLEWVTVISDDGNNKYYVDSVKGRFTISRDNSKNTLFLQMNSLRVEDTAIYYCARASYNSNWSIGEYFRDWGQGTLVTVSS
VL: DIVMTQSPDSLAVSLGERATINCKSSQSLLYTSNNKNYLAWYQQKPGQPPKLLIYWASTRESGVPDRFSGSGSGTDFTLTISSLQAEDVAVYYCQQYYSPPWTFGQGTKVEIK
B3: COV2-2143 IgG (antibody, V domains shown)
VH: EVQLVESGGGLVQPGGSLRLSCAASGFTVSSNYMSWVRQAPGKGLEWVSVIYSAGSTYYADSVKGRFSISRDKSKNTLYLQMNSLRAEDTAVYYCAKEGGSGSLRYYYYGMDVWGQGTTVTVSS
VL: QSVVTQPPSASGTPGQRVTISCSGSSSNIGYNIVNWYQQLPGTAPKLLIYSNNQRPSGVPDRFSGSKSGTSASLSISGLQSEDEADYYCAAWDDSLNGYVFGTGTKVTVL
B4: CV27 IgG (antibody, V domains shown)
VH: QVQLVESGGGVVQPGRSLRLSCAASGFTFSSYAMHWVRQAPGKGLEWVALISYDGSNKYYADSVKGRFTISRDNSKNTLYLQMNSLRAEDTAVYYCARSFGGSYYYGMDVWGQGTTVTVSS
VL: QSALTQPASVSGSPGQSITISCTGTSSDVGGYNYVSWYQQHPGKAPKLMIYDVSNRPSGVSNRFSGSKSGNTASLTISGLQAEDEADYYCSSYTSSSTPYVFGTGTKVTVL
B5: COV2-2147 IgG (antibody, V domains shown)
VH: B4 VH with V5A, L50V, F100T, G101S
VL: QSALTQPASVSGSPGQSITISCTGTSSDVGDYNYVSWYQQHPGKAPKLMIYDVSNRPSGVSNRFSGSKSGNTASLTISGLQAEDEAEYYCSSYTSSSTLLYVFGTGTKVTVL
B6: COVA2-18 IgG (antibody, V domains shown)
VH: B1 VH with Q1E, I35S, A58T, R100Y, Y101S, E109L, D110E, L117R
VL: B1 VL with E39K, M97S, Y98I, K105R, V106L

What was measured:
[1] = molecular target: T1, SARS-CoV-1 spike protein (FL-GCN4-Avi-His, 2P, biotinylated trimer) (SARS-CoV (SARS-CoV-1), strain of …, UniProt P59594, stabilised, biotin on the Avi tag); assay: ELISA; settings: both partners purified
[2] = molecular target: T1, SARS-CoV-1 spike protein …; assay: BLI; settings: both partners purified

| Binder | binding result [1] | binding result [2] |
| --- | --- | --- |
| B1 | binds |  |
| B2 | binds |  |
| B3 | binds |  |
| B4 |  | binds |
| B5 |  | binds |
| B6 |  | binds |
